Results reported in the supplement of paper PMC7125110.
± gives the standard error. Fewer inactive variants are shown than the library holds.

B1: glmS ribozyme (parent)
chain: AUAAAAGCGCCAGAACUACAGAAAUGUAGUUGACGAGGAGGAGGUUUAUCGAAUUUUCGGCGGAUGCCUCCAAA

How the values were obtained:
Settings in all cases: with glucosamine-6-phosphate
glucosamine-6-phosphate [1] = variants of: B1; assay: self-cleavage kobs at 40 uM GlcN6P; higher = faster cleavage; RNA array
Method in brief: (§1)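 kcat and KM were obtained from weighted Michaelis–Menten fits across concentrations of kobs values. Those came from one- or two-exponential decay fits to per-tile medians normalised to baseline and to non-cleaving reference variants. The variants were barcoded ribozymes transcribed in situ by E. coli RNA polymerase on sequenced MiSeq chips and tracked through a hybridised Cy3 probe at 37 °C, with 40 μM to 10 mM glucosamine-6-phosphate in HEPES/KCl/Mg(OAc)2 buffer flowed in.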

glucosamine-6-phosphate [2] = variants of: B1; assay: self-cleavage kobs at 640 uM GlcN6P; higher = faster cleavage; RNA array
Method in brief: as §1

glucosamine-6-phosphate [3] = variants of: B1; assay: self-cleavage kobs at 10000 uM GlcN6P; higher = faster cleavage; RNA array
Method in brief: as §1

glucosamine-6-phosphate [4] = variants of: B1; assay: self-cleavage kobs at 2500 uM GlcN6P; higher = faster cleavage; RNA array
Method in brief: as §1

glucosamine-6-phosphate [5] = variants of: B1; assay: self-cleavage kobs at 160 uM GlcN6P; higher = faster cleavage; RNA array
Method in brief: as §1

| Variant | self-cleavage kobs at 40 uM GlcN6P (glucosamine-6-phosphate [1]) | self-cleavage kobs at 640 uM GlcN6P (glucosamine-6-phosphate [2]) | self-cleavage kobs at 10000 uM GlcN6P (glucosamine-6-phosphate [3]) | self-cleavage kobs at 2500 uM GlcN6P (glucosamine-6-phosphate [4]) | self-cleavage kobs at 160 uM GlcN6P (glucosamine-6-phosphate [5]) |
| --- | --- | --- | --- | --- | --- |
| A6C C61G | < 1e-05 s⁻¹ | < 1e-05 s⁻¹ | < 1e-05 s⁻¹ | – | – |
| G9A A14U A39G | < 1e-05 s⁻¹ | – | – | < 1e-05 s⁻¹ | – |
| A15C C70U | 0.000192 ± 1.8e-05 s⁻¹ | 0.000719 ± 7.7e-05 s⁻¹ | 0.00871 ± 0.0019 s⁻¹ | 0.00537 ± 0.0012 s⁻¹ | 0.000389 ± 4.7e-05 s⁻¹ |
| G9A A15G U30C | < 1e-05 s⁻¹ | – | – | – | – |
| A14G U30A | 0.000672 ± 0.00011 s⁻¹ | 0.00759 ± 0.0013 s⁻¹ | 0.017 ± 0.0042 s⁻¹ | 0.0384 ± 0.012 s⁻¹ | 0.00098 ± 0.00024 s⁻¹ |
| G41U U46G C67U | < 1e-05 s⁻¹ | < 1e-05 s⁻¹ | – | – | < 1e-05 s⁻¹ |
| A36C G62C | < 1e-05 s⁻¹ | – | < 1e-05 s⁻¹ | – | < 1e-05 s⁻¹ |
| G35U U65G | < 1e-05 s⁻¹ | < 1e-05 s⁻¹ | < 1e-05 s⁻¹ | < 1e-05 s⁻¹ | < 1e-05 s⁻¹ |
| C50G G66U | 0.000495 ± 0.00015 s⁻¹ | – | – | 0.000123 ± 5.1e-05 s⁻¹ | – |
| C34U U65A C67G | 0.000176 ± 7.1e-05 s⁻¹ | – | – | – | – |
| A12C G32U C71A | < 1e-05 s⁻¹ | – | – | – | – |
| C11A A42G U56A | < 1e-05 s⁻¹ | – | 7.2e-05 ± 1.5e-05 s⁻¹ | 2.82e-05 ± 1.3e-05 s⁻¹ | – |
| G7A A15U C58A | < 1e-05 s⁻¹ | < 1e-05 s⁻¹ | < 1e-05 s⁻¹ | < 1e-05 s⁻¹ | – |
| G32U G44U | < 1e-05 s⁻¹ | < 1e-05 s⁻¹ | – | – | < 1e-05 s⁻¹ |
| G37U A48U C68A | < 1e-05 s⁻¹ | – | < 1e-05 s⁻¹ | – | – |
| G35C G59A | < 1e-05 s⁻¹ | < 1e-05 s⁻¹ | – | < 1e-05 s⁻¹ | < 1e-05 s⁻¹ |
| G29A G43C | < 1e-05 s⁻¹ | < 1e-05 s⁻¹ | < 1e-05 s⁻¹ | – | < 1e-05 s⁻¹ |
| G29A A33G C34G C67U | < 1e-05 s⁻¹ | – | – | – | – |
| U47A U56A | 0.00024 ± 5.3e-05 s⁻¹ | 0.00196 ± 0.00027 s⁻¹ | 0.0235 ± 0.0091 s⁻¹ | 0.00548 ± 0.0015 s⁻¹ | 0.000539 ± 0.0001 s⁻¹ |
| G38U G44U U49C | < 1e-05 s⁻¹ | – | < 1e-05 s⁻¹ | – | – |
| G9U A33U A53U C61G | < 1e-05 s⁻¹ | – | – | – | – |
| U55C C61U C68U | < 1e-05 s⁻¹ | – | < 1e-05 s⁻¹ | – | – |
| A15G U30G C70U | 0.000184 ± 5.6e-05 s⁻¹ | 0.00102 ± 0.00026 s⁻¹ | 0.0318 ± 0.013 s⁻¹ | – | – |
| U46G G51U U57A C70G | 4.37e-05 ± 1.9e-05 s⁻¹ | – | – | – | – |

| Variant | self-cleavage kobs at 40 uM GlcN6P (glucosamine-6-phosphate [1]) | self-cleavage kobs at 640 uM GlcN6P (glucosamine-6-phosphate [2]) | self-cleavage kobs at 10000 uM GlcN6P (glucosamine-6-phosphate [3]) | self-cleavage kobs at 2500 uM GlcN6P (glucosamine-6-phosphate [4]) | self-cleavage kobs at 160 uM GlcN6P (glucosamine-6-phosphate [5]) |
| --- | --- | --- | --- | --- | --- |
| A36C C58U | < 1e-05 s⁻¹ | < 1e-05 s⁻¹ | < 1e-05 s⁻¹ | – | – |
| A15G C50G C68U | 0.000179 ± 3.4e-05 s⁻¹ | 0.000492 ± 0.00016 s⁻¹ | 0.000154 ± 3.1e-05 s⁻¹ | 0.000371 ± 0.00011 s⁻¹ | – |
| U49C U57C | < 1e-05 s⁻¹ | < 1e-05 s⁻¹ | < 1e-05 s⁻¹ | – | < 1e-05 s⁻¹ |
| C8U G44C A53U G63U C68G | < 1e-05 s⁻¹ | – | < 1e-05 s⁻¹ | – | – |
| C11G U54C | < 1e-05 s⁻¹ | – | – | – | – |
| C11G A14C | < 1e-05 s⁻¹ | – | – | – | < 1e-05 s⁻¹ |
| C58U U65A | < 1e-05 s⁻¹ | – | – | – | < 1e-05 s⁻¹ |
| C11U A15C U46A | < 1e-05 s⁻¹ | < 1e-05 s⁻¹ | – | – | < 1e-05 s⁻¹ |
| G37A U57C G59C | < 1e-05 s⁻¹ | – | < 1e-05 s⁻¹ | – | – |
| G7C G13C G63U C70G | < 1e-05 s⁻¹ | < 1e-05 s⁻¹ | < 1e-05 s⁻¹ | < 1e-05 s⁻¹ | – |
| G29C C61U | < 1e-05 s⁻¹ | – | – | – | – |
| A39U C61A U65C | < 1e-05 s⁻¹ | – | – | – | – |
| G29C G35U C58U | < 1e-05 s⁻¹ | – | – | – | – |
| A33U A42U C61U | < 1e-05 s⁻¹ | – | – | – | – |
| G35C A39G U49G C50U | < 1e-05 s⁻¹ | < 1e-05 s⁻¹ | < 1e-05 s⁻¹ | < 1e-05 s⁻¹ | – |
| A6G A15U C16G A53G C61G G63A | < 1e-05 s⁻¹ | < 1e-05 s⁻¹ | – | < 1e-05 s⁻¹ | < 1e-05 s⁻¹ |
| C8U A39C | < 1e-05 s⁻¹ | < 1e-05 s⁻¹ | < 1e-05 s⁻¹ | < 1e-05 s⁻¹ | < 1e-05 s⁻¹ |
| G13A C34G C50U C67G | 0.000108 ± 3.3e-05 s⁻¹ | 0.00142 ± 0.00036 s⁻¹ | 8.5e-05 ± 2.6e-05 s⁻¹ | – | – |
| C11A G59A G60A A64U | < 1e-05 s⁻¹ | – | – | – | – |
| G35A A42G | < 1e-05 s⁻¹ | < 1e-05 s⁻¹ | < 1e-05 s⁻¹ | < 1e-05 s⁻¹ | < 1e-05 s⁻¹ |
| G35A G43U | < 1e-05 s⁻¹ | < 1e-05 s⁻¹ | < 1e-05 s⁻¹ | < 1e-05 s⁻¹ | < 1e-05 s⁻¹ |
| G9A C70A | < 1e-05 s⁻¹ | < 1e-05 s⁻¹ | < 1e-05 s⁻¹ | < 1e-05 s⁻¹ | < 1e-05 s⁻¹ |
| U31G A53U C58G G60A | < 1e-05 s⁻¹ | – | < 1e-05 s⁻¹ | – | – |
